Measured values taken from patent publication US20190338038A1 (CELLERANT THERAPEUTICS, published 2019).

T1: IL1-RAP (antigen of the kinetic measurements of Tables 5A and 5B) (human, UniProt Q9NPH3 21-359, limits assumed)
T1 sequence: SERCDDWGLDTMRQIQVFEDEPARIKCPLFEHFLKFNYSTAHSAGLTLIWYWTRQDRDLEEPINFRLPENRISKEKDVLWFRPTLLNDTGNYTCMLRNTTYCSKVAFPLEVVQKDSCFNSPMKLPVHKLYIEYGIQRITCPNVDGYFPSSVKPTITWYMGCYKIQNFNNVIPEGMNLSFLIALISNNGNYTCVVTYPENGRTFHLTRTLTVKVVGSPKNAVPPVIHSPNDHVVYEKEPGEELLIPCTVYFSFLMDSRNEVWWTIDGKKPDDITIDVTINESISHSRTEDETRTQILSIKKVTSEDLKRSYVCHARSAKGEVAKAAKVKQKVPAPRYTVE

T2: human interleukin 1 receptor accessory protein, membrane-bound form on cells (human, UniProt Q9NPH3 21-570)
T2 construct: On IL1-RAP-transfected 293 cells, AML cell lines (EOL-1, HNT-34, OCI-AML2, OCI-AML3), primary AML cells and HEK-Blue IL-1β cells; also called IL1-RAP; receptor IL1-RAP
T2 sequence: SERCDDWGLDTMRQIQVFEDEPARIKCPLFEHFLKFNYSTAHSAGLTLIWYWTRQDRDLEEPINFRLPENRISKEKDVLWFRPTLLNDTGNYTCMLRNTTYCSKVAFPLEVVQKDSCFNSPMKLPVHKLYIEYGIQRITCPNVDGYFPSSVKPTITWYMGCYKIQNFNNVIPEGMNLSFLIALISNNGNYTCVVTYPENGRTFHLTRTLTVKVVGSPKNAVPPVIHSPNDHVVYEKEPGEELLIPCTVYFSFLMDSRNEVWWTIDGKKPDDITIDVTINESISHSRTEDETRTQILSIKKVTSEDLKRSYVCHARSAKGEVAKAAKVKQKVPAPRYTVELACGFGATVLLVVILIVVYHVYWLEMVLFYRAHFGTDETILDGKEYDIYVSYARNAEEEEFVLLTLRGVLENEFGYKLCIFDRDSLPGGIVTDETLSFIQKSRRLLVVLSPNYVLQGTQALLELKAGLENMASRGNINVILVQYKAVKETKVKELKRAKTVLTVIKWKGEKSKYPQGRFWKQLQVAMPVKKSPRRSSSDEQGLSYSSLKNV

T3: soluble IL1-RAP form (isoform 2) (human, UniProt Q9NPH3 21-350)
T3 construct: Expressed in and purified from 293 cells; also called Q9NPH3-2; soluble form IL1RAP
T3 sequence: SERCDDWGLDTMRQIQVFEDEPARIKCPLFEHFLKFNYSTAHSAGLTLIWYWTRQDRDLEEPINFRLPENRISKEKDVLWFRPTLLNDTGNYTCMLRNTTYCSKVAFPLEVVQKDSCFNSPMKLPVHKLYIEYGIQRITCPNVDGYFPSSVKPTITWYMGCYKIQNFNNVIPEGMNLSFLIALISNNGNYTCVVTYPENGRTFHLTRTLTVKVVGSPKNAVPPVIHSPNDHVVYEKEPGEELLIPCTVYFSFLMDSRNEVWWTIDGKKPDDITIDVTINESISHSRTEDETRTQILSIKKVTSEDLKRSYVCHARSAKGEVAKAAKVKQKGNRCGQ

T4: his-tagged extracellular domain (ECD) of IL1-RAP (human, UniProt Q9NPH3 21-367)
T4 construct: also called ECD IL1-RAP; IL1-RAP-His fusion protein
T4 sequence: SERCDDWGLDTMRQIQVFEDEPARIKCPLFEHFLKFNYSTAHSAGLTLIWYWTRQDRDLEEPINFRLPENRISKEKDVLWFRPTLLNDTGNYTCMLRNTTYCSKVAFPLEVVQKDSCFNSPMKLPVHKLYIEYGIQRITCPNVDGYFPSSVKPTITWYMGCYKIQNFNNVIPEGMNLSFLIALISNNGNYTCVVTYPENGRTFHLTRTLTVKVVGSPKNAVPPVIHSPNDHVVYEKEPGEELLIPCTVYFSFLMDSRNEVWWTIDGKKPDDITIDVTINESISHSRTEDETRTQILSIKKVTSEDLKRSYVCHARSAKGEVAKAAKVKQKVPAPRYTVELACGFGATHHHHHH


Assays:
[1] = target: T1, IL1-RAP (antigen of the kinetic …); experiment: kinetics, Table 5A; method and antigen form not stated; Table 5A
[2] = target: T1, IL1-RAP (antigen of the kinetic …); experiment: kinetics, Table 5B; method and antigen form not stated
[3] = target: T1, IL1-RAP (antigen of the kinetic …); experiment: kinetics, Table 5A; method and antigen form not stated
[4] = target: T1, IL1-RAP (antigen of the kinetic …); experiment: kinetics, Table 5B; method and antigen form not stated; Table 5B
[5] = target: T2, human interleukin 1 receptor accessory …; experiment: FACS on EOL-1 cells, FITC; antibody concentration not given
[6] = target: T2, human interleukin 1 receptor accessory …; experiment: FACS titration on EOL-1 cells
[7] = target: T3, soluble IL1-RAP form (isoform 2); experiment: sandwich ELISA: plate coated with goat anti-IL1RAP antibody, then soluble IL1-RAP, then 2H8
Description: (§1) The extracellular domain of IL1-RAP (Q9NPH3-4) and soluble IL1-RAP form (Q9NPH3-2) were expressed and purified from 293 cells. Sandwich ELISA was performed. The binding data shown in FIGS. 3A and 3B supports the conclusion that clone 2H8 binds to membrane-bound IL1-RAP better compared to soluble IL1-RAP form.

[8] = target: T4, his-tagged extracellular domain (ECD) …; experiment: sandwich ELISA: plate coated with goat anti-IL1RAP antibody, then extracellular domain of IL1-RAP, then 2H8
Description: as §1

[9] = target: T2, human interleukin 1 receptor accessory …; experiment: FACS titration on HNT-34 cells
[10] = target: T2, human interleukin 1 receptor accessory …; experiment: FACS titration on EOL-1 cells; remark: listed apart in the source
[11] = target: T2, human interleukin 1 receptor accessory …; experiment: FACS titration on IL1-RAP transfected 293 cells

Kd [1] [nM] | koff [2] [s⁻¹] | kon [2] [M⁻¹ s⁻¹] | koff [3] [s⁻¹] | kon [3] [M⁻¹ s⁻¹] | Kd [4] [nM] | MFI [5] | EC50 (read off the curve) [6] [nM] | EC50 (read off the curve) [7] [µg/mL] | EC50 (read off the curve) [8] [µg/mL] | EC50 (read off the curve) [9] [µg/mL] | EC50 (read off the curve) [10] [µg/mL] | EC50 (read off the curve) [11] [µg/mL] | Binder
< 0.001 | < 1e-07 | 158000 | < 1e-07 | 143000 | < 0.001 | 32.2 | ~200 | – | – | – | – | – | chimeric 54.9D7 (antibody, V domains shown, Chimeric antibody; also called Chi54.9D7) VH: HVQLQQSGPELVRPGASVKLSCKASGYIFITYWMNWVKQRPGQGLEWVGQIFPASGTTYYNELFEGKATLTVDTSSNTAYMHLTSLTSEDSAVYYCARTDFYRYDGGYALDYWGQGTSLTVSS VL: DIVLTQSPISLAVFLGQRATISCRASQSVSTSGYSSMHWYQQKAGQPPKLLIKYASDLESGVPVRFSGSGSGTDFILNIHPVEVEDIATYYCHHSWGIPMYTFGGGTKLEIKR
– | – | – | – | – | – | – | – | ~1 | ~0.6 | ~0.5 | ~1 | ~0.9 | anti-IL1-RAP antibody clone 2H8 (antibody, V domains shown, Mouse monoclonal antibody; also called 2H8.3) VH: QIQLVQSGPELKKPGETVKISCKASGYTFTDYSMHWVKQAPGKGLKWMGWINTETGEPTYADDFKGRFAFSLETSASTAYLQINNLKNEDTATYFCARYYGYFDYWGQGTTLTVSS VL: DIVLTQSPASLAVSLGQRATISCRASESVDSYGNSFMHWYQQKPGQPPKLLIYRASNLESGIPARFSGSGSRTDFTLTINPVEADDVATYYCQQSNEDPWTFGGGTKLEIK
